Results published in the RNAGym collection of RNA variant scans (doi:10.1073/pnas.2313332121).
Fewer inactive variants are shown than the library holds.

B1: TPR 5TU (parent)
chain: GGAUCUUCUCGAUCUAACAAAAAAGACAAAUCUGCCACAAAGCUUGAGAGCAUCUUCGGAUGCAGAGGCGGCAGCCUUCGGUGGCGCGAUAGCGCCAACGUUCUCAACUAUGACACGCAAAACGCGUGCUCCGUUGAAUGGAGUUUAUCAUG

Variants of: B1
Assay: polymerase ribozyme fitness, log enrichment relative to wild type (log ratio); higher = more active; in vitro selection for triplet polymerase activity
In short: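 Fitness is a logarithmic measure of how a genotype enriched relative to the wild type, with replicate averages weighted by inverse variance. The logarithm uses base 2, and enrichment came from Illumina sequencing of input and output libraries. Those libraries were PCR-built, transcribed mutants of each subunit of a heterodimeric triplet polymerase ribozyme, passed through one triplicate in vitro selection round that included frozen incubation at −7 °C, gel excision of extended constructs and streptavidin-bead capture. Genotypes were kept only if they had ≥10 input reads and ≥1 read per output.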

Row | Variant | polymerase ribozyme fitness (log ratio)
1 | U4C U56G G83A C87A | ≤ -4.2
2 | A3U C18G A21U C57U C85U G94A A121U | -1.04
3 | A3U C85G C125A U144A | -3.46
4 | C5G C43U A73U G92U U134A U144C | ≤ -4.2
5 | U4A A60U A97C U109A | -3
6 | C5A A52U G83A | -3.03
7 | C5G A21G C57G C93U A115U | -3.31
8 | C5U A19G A21G A29G C87G C95G | ≤ -4.2
9 | U4A U33C G59A U90G C95A U111G C125A | ≤ -4.2
10 | A3U C8G C51A A89G U90G A120U G133C | ≤ -4.2
11 | C5G G84A C96A | -1.4
12 | U4A A24U C57G C85U | -0.18
13 | C5G G50A C87U | -2.86
14 | C5A C35A C38U G74U C87A U148A | ≤ -4.2
15 | C5A G42A A97G U101G C103G A110G G140U | -3.6
16 | A3U U6G G48A A107G | ≤ -4.2
17 | U4A C35A U53C C96G A122U | ≤ -4.2
18 | C5G C18G G48U U53A C103G | -3.62
19 | C5G G94C A122C | -1.03
20 | U4G C18U C51U G80C A91G C95G C105U U109A A119U | ≤ -4.2
21 | U4C C10G A17U A22G C36U U78A G92A C118U | ≤ -4.2

Row | Variant | polymerase ribozyme fitness (log ratio)
22 | C5G U77C C87G U134G | ≤ -4.2
23 | U4G G50A C96G U102G C123A | ≤ -4.2
24 | C5G A17G C32U A49C C54U U55G G88C C96A | ≤ -4.2
25 | C5A C75U C87U | 0.223
26 | C5G C14A G48U U53A G74A G80C U82G C96G C118G G133U | ≤ -4.2
27 | U4C C69G G141U A147U | -1.91
28 | U4G C10G A24U C35U U55G G83A C116A | ≤ -4.2
29 | U4G A21C U56G C85U G124U | -1.58
30 | U4C C32A A37G G83U A122U U151A | ≤ -4.2
31 | C5G C10G U13G C14G C54A C57U G88U G94A U139C U144C | ≤ -4.2
32 | U4C U15C C87A A121C | ≤ -4.2
33 | C5U A19U G83U G92U C123A G126U U146G | -4.19
34 | C5G A16C G59U C96A | -2.66
35 | U4A A52G C57A G126U | -1.17
36 | U4G A37C G50U G59U G86U | -3.71
37 | U4A A17G A47G G68U C69G G88U G124A U127A G128C G140U U145G | ≤ -4.2
38 | C5A C54U | 0.00554
39 | A3U C54U U56A C95U C123U A150C G152U | -3.58
40 | U4G C57G | -0.334
41 | A3U G59A A120U | -0.556
42 | A3U C27G C95U A150G | ≤ -4.2

Row | Variant | polymerase ribozyme fitness (log ratio)
43 | C5A C85A | -1.31
44 | U4C C8U A22U G50U C54U A107U C116G | ≤ -4.2
45 | U4A G11U G50A C76U G84U G94C G126U | ≤ -4.2
46 | C5A C14G | -0.996
47 | A3U C76A | -1.8
48 | A3U U6A A19U G42U A113G A121U G124C U148A | ≤ -4.2
49 | U4C A19C C38G C93U C114G | ≤ -4.2
50 | C5U A26U | -1.04
51 | A3U C5G A29U U31C A41C U55A U56C G84A C87U U111G U135A | ≤ -4.2
52 | C5G A21U C27U G46A G94C C105G G126A | ≤ -4.2
53 | U4C C87A A89U C129G | ≤ -4.2
54 | U4G G50C C118U | ≤ -4.2
55 | U4G U6G A20C A24U A30C C95U A119C U148A | ≤ -4.2
56 | U4G C5U U55G A106C | -2.25
57 | A3U G68A U77A C85G C149G | ≤ -4.2
58 | C5G A17U G74A A91G G141U | ≤ -4.2
59 | U4G C87A A98G U130G | ≤ -4.2
60 | C5G U6G U61C C85U | -3.57
61 | C5G U7C U13A A16G C51U G92C A98G C114A | -4.13
62 | U4A C8A C43A A64U C93A U146C | ≤ -4.2
63 | A3U G58A U130A | -3.64

Row | Variant | polymerase ribozyme fitness (log ratio)
64 | C5A C93U A98G C103A | -3.31
65 | U4C U53A A121C U144C | -1.34
66 | U4G C5U A24U A26U G65U G88U G94U A98G G124U G143U | ≤ -4.2
67 | A3U C5A C35U C87A | ≤ -4.2
68 | A3U C27U A49C G88C C96A C125G A142C | ≤ -4.2
69 | C5U A21U G84A C131A | -2.96
70 | A3U C108G A121U | ≤ -4.2
71 | U4G U13C A19G A52G U56G A64U G80C A91G C95G C105U U109A A119U | ≤ -4.2
72 | U4G A22U U148C | -3.08
73 | U4C U55A G86U | -2.08
74 | A3U U144G | 0.419
75 | C5A G11U A21C C54U C57A C87U | -1.42
76 | U4G G34A C96G A97U C123A C132A | ≤ -4.2
77 | A3U C5A A19U G50A C57U | -3.13
78 | U4C C36G G50A C51A C75A G83A G112U C116A | ≤ -4.2
79 | C5A A21U A30G A39U G68A C149A | ≤ -4.2
80 | C5G G48A U61A C99G C132G G133U A142C | ≤ -4.2
81 | C5G U6C C57A C85U | -1.26
82 | C5G G50C A122U C125U | -3.46
83 | U4G C10A U56A G71C G84C | ≤ -4.2
84 | C5A A21U U77A U82G C96G U104G C105A C118U U139C | ≤ -4.2
